Results reported in the Immune Epitope Database (IEDB).

Legend:
HLA-A*02:01 = test: IEDB peptide-MHC binding, purified MHC/competitive/fluorescence; ≥ and ≤ were set here for values at or beyond the usual limits of such assays
HLA-A*24:02 = test: as above
HLA-B*07:02 = test: IEDB peptide-MHC binding, purified MHC/competitive/radioactivity; filed as Kd, often an IC50 or EC50 that approximates it; ≥ and ≤ were set here for values at or beyond the usual limits of such assays
HLA-A*01:01 = test: as above
HLA-A*30:02 = test: as above
HLA-A*30:01 = test: as above
HLA-A*32:01 = test: as above
HLA-A*29:02 = test: as above
HLA-A*26:01 = test: as above
HLA-B*15:01 [1] = test: as above
HLA-B*51:01 = test: as above; settings: source organism: Dengue virus 1 Brazil/97-11/1997
HLA-B*35:01 = test: as above
HLA-B*53:01 = test: as above; settings: source organism: Dengue virus 1 Brazil/97-11/1997
HLA-A*11:01 = test: IEDB peptide-MHC binding, purified MHC/competitive/fluorescence; ≥ and ≤ were set here for values at or beyond the usual limits of such assays
HLA-B*15:01 [2] = test: IEDB peptide-MHC binding, purified MHC/competitive/fluorescence; filed as Kd, often an IC50 or EC50 that approximates it; ≥ and ≤ were set here for values at or beyond the usual limits of such assays; settings: source organism: Bacillus cereus G9241
[3] = source organism: Vaccinia virus
[4] = source organism: Zaire ebolavirus
[5] = source organism: Dengue virus 1 Brazil/97-11/1997
[6] = source organism: Mammarenavirus juninense
[7] = source organism: Vaccinia virus WR
[8] = source organism: Dengue virus 4 Philippines/H241/1956
[9] = source organism: Dengue virus 2 Jamaica/1409/1983
[10] = source organism: Dengue virus 3 Martinique/1243/1999
[11] = source organism: Mammarenavirus brazilense
[12] = source organism: Sudan ebolavirus
[13] = source organism: Lymphocytic choriomeningitis virus (strain Armstrong)

KFPYEGGKV
IC50 (HLA-A*02:01; [3]): ≥ 96.1 µM | IC50 (HLA-A*24:02; [3]): ≥ 130 µM

KNSQKGQHI
IC50 (HLA-A*24:02; [4]): ≥ 615 µM

KPEGKVIDL
Kd (HLA-B*07:02; [5]): 0.496 µM

KTGEKSRCY
Kd (HLA-A*01:01; [6]): ≥ 22.5 µM | Kd (HLA-A*30:02; [6]): 2.19 µM | Kd (HLA-A*30:01; [6]): 2.48 µM | Kd (HLA-A*32:01; [6]): 0.116 µM | Kd (HLA-A*29:02; [6]): ≥ 78.9 µM | Kd (HLA-A*26:01; [6]): ≥ 77.9 µM

KTIARFTYF
Kd (HLA-B*15:01 [1]; [7]): 0.000195 µM | Kd (HLA-A*32:01; [7]): 0.0952 µM

KTKLTDWDFV
Kd (HLA-A*32:01; [8]): 15.6 µM

KVIQLSRKTF
Kd (HLA-B*15:01 [1]; [9]): 0.0495 µM

LALGCYSQV
Kd (HLA-B*51:01): 0.567 µM

LFRFFECTF
Kd (HLA-B*15:01 [1]; [7]): 3.03 µM

LIILSAVAI
Kd (HLA-A*32:01; [7]): 0.125 µM

LILCVTQVLM
Kd (HLA-B*35:01; [9]): 14.2 µM

LMILLTGGAM
Kd (HLA-B*15:01 [1]; [10]): 0.00291 µM

LPDTIETLML
Kd (HLA-B*35:01; [5]): 0.578 µM | Kd (HLA-B*51:01): 19.3 µM | Kd (HLA-B*53:01): 0.297 µM

LPVWLAYKVA
Kd (HLA-B*35:01; source organism: Dengue virus 2 Peru/IQT2913/1996): 5.09 µM

LQHILIEYM
Kd (HLA-B*15:01 [1]; [7]): 1.22 µM

LVVGEKACL
IC50 (HLA-A*02:01; [4]): ≥ 115 µM | IC50 (HLA-A*24:02; [4]): ≥ 139 µM

LYPNVCIFG
IC50 (HLA-A*24:02; [3]): 0.0716 µM

MGLDKGWPI
Kd (HLA-B*51:01): ≥ 44.7 µM

MGVTGILQL
IC50 (HLA-A*02:01; [4]): 52.9 µM | IC50 (HLA-A*11:01; [4]): ≥ 73.8 µM | IC50 (HLA-A*24:02; [4]): ≥ 85.2 µM

NLSGVNNLE
IC50 (HLA-A*02:01; [4]): ≥ 227 µM | IC50 (HLA-A*24:02; [4]): ≥ 86.4 µM

NMRDLIVTF
Kd (HLA-B*15:01 [1]; [7]): 0.00826 µM

NSIEYILSF
Kd (HLA-B*15:01 [1]; [7]): 2.26 µM

RIFFGKTSI
Kd (HLA-A*32:01; [7]): 0.00132 µM

RISRFANLI
Kd (HLA-A*32:01; [7]): 0.00623 µM

RLRGEQRKTF
Kd (HLA-B*15:01 [1]; [8]): 0.0244 µM

RMNAVSTIL
Kd (HLA-B*15:01 [2]): 0.0827 µM

RVLSLIGLK
IC50 (HLA-A*11:01; source organism: West Nile virus): 0.334 µM

RYQATGFGT
IC50 (HLA-A*02:01; [4]): ≥ 226 µM | IC50 (HLA-A*24:02; [4]): ≥ 99.3 µM

SLTEEFYHSY
Kd (HLA-A*01:01; [11]): 0.129 µM | Kd (HLA-A*30:02; [11]): 0.225 µM | Kd (HLA-A*30:01; [11]): ≥ 58.5 µM | Kd (HLA-A*32:01; [11]): ≥ 26.1 µM | Kd (HLA-A*29:02; [11]): 1.44 µM | Kd (HLA-A*26:01; [11]): 3.41 µM

SNTTGRLIW
IC50 (HLA-A*24:02; [12]): 3.61 µM

SPSKLASAIQ
Kd (HLA-B*07:02; [9]): 0.436 µM

SPSPTVEESR
Kd (HLA-B*07:02; [10]): 3.71 µM

STAPSSPPPY
Kd (HLA-A*01:01; [13]): 0.034 µM | Kd (HLA-A*30:02; [13]): 1.52 µM | Kd (HLA-A*30:01; [13]): 0.344 µM | Kd (HLA-A*32:01; [13]): 9.4 µM | Kd (HLA-A*29:02; [13]): 2.69 µM | Kd (HLA-A*26:01; [13]): 8.26 µM

TPRSMPGTRR
Kd (HLA-B*07:02; [10]): 1.14 µM

TPSMTMRCVG
Kd (HLA-B*07:02; [10]): 0.048 µM

TPTWNRKELL
Kd (HLA-B*07:02; [10]): 0.0182 µM

VISDLFPSF
Kd (HLA-B*15:01 [1]; [7]): 0.21 µM

VQKEGVFHTM
Kd (HLA-B*15:01 [1]; [10]): 0.0242 µM

VTAETQNSSF
Kd (HLA-A*01:01; [10]): 16.2 µM | Kd (HLA-B*15:01 [1]; [10]): 0.0259 µM | Kd (HLA-A*26:01; [10]): ≥ 20.4 µM

WLPMTVAAM
Kd (HLA-B*15:01 [1]; source organism: Dengue virus 3 Sri Lanka/1266/2000): 0.177 µM

YLEYEIENF
IC50 (HLA-A*02:01; [12]): 42.6 µM | IC50 (HLA-A*24:02; [12]): 17.3 µM
